In article PMC4227790:

Biological target: FLAG-tagged TRAP150 (thyroid hormone receptor-associated protein of 150 kDa), full length (UniProt Q9Y2W1)
Experiment: co-IP; anti-FLAG immunoprecipitation of FLAG-TRAP150 (full length or truncated) from lysate of transfected HEK293 cells (hypotonic buffer with 0.5% Triton X-100, brought to 150 mM NaCl); precipitates mock- or RNase A-treated; immunoblot of endogenous partners

UniProt Q9Y2W1, sequence (Q9Y2W1 2-955): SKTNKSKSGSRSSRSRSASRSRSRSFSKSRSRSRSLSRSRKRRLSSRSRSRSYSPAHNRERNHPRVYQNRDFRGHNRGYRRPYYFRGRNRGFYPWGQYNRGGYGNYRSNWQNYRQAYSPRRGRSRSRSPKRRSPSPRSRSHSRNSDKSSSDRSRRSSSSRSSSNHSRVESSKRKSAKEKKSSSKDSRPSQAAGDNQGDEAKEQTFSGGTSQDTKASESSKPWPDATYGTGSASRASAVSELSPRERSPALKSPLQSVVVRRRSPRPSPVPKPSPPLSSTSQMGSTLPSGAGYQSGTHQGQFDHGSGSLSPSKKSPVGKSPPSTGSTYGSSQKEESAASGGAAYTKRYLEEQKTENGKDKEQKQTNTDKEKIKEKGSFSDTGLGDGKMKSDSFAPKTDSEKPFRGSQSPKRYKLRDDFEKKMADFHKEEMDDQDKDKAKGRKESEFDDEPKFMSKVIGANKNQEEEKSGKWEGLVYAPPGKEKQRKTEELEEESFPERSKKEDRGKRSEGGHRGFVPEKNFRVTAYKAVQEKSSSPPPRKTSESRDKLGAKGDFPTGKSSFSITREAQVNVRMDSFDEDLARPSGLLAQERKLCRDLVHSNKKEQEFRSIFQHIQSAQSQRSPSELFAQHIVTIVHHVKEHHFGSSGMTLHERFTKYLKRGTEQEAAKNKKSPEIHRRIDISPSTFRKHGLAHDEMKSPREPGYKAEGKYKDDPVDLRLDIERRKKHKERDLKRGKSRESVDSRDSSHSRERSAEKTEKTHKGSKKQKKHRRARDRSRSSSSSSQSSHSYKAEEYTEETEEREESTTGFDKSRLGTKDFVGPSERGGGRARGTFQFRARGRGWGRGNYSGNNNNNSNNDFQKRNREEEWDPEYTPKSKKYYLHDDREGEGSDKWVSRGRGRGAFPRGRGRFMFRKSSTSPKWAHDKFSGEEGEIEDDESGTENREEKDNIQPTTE

percent of CPSF160 co-precipitated: 10 to 20%
B1: CPSF160 (natural protein)
chain: MYAVYKQAHPPTGLEFSMYCNFFNNSERNLVVAGTSQLYVYRLNRDAEALTKNDRSTEGKAHREKLELAASFSFFGNVMSMASVQLAGAKRDALLLSFKDAKLSVVEYDPGTHDLKTLSLHYFEEPELRDGFVQNVHTPRVRVDPDGRCAAMLVYGTRLVVLPFRRESLAEEHEGLVGEGQRSSFLPSYIIDVRALDEKLLNIIDLQFLHGYYEPTLLILFEPNQTWPGRVAVRQDTCSIVAISLNITQKVHPVIWSLTSLPFDCTQALAVPKPIGGVVVFAVNSLLYLNQSVPPYGVALNSLTTGTTAFPLRTQEGVRITLDCAQATFISYDKMVISLKGGEIYVLTLITDGMRSVRAFHFDKAAASVLTTSMVTMEPGYLFLGSRLGNSLLLKYTEKLQEPPASAVREAADKEEPPSKKKRVDATAGWSAAGKSVPQDEVDEIEVYGSEAQSGTQLATYSFEVCDSILNIGPCANAAVGEPAFLSEEFQNSPEPDLEIVVCSGHGKNGALSVLQKSIRPQVVTTFELPGCYDMWTVIAPVRKEEEDNPKGEGTEQEPSTTPEADDDGRRHGFLILSREDSTMILQTGQEIMELDTSGFATQGPTVFAGNIGDNRYIVQVSPLGIRLLEGVNQLHFIPVDLGAPIVQCAVADPYVVIMSAEGHVTMFLLKSDSYGGRHHRLALHKPPLHHQSKVITLCLYRDLSGMFTTESRLGGARDELGGRSGPEAEGLGSETSPTVDDEEEMLYGDSGSLFSPSKEEARRSSQPPADRDPAPFRAEPTHWCLLVRENGTMEIYQLPDWRLVFLVKNFPVGQRVLVDSSFGQPTTQGEARREEATRQGELPLVKEVLLVALGSRQSRPYLLVHVDQELLIYEAFPHDSQLGQGNLKVRFKKVPHNINFREKKPKPSKKKAEGGGAEEGAGARGRVARFRYFEDIYGYSGVFICGPSPHWLLVTGRGALRLHPMAIDGPVDSFAPFHNVNCPRGFLYFNRQGELRISVLPAYLSYDAPWPVRKIPLRCTAHYVAYHVESKVYAVATSTNTPCARIPRMTGEEKEFETIERDERYIHPQQEAFSIQLISPVSWEAIPNARIELQEWEHVTCMKTVSLRSEETVSGLKGYVAAGTCLMQGEEVTCRGRILIMDVIEVVPEPGQPLTKNKFKVLYEKEQKGPVTALCHCNGHLVSAIGQKIFLWSLRASELTGMAFIDTQLYIHQMISVKNFILAADVMKSISLLRYQEESKTLSLVSRDAKPLEVYSVDFMVDNAQLGFLVSDRDRNLMVYMYLPEAKESFGGMRLLRRADFHVGAHVNTFWRTPCRGATEGLSKKSVVWENKHITWFATLDGGIGLLLPMQEKTYRRLLMLQNALTTMLPHHAGLNPRAFRMLHVDRRTLQNAVRNVLDGELLNRYLYLSTMERSELAKKIGTTPDIILDDLLETDRVTAHF
